Results on 13 molecules are retold here after article PMC6531468, “Combinatorial recognition of clustered RNA elements by the multidomain RNA-binding protein IMP3”.

As usually defined, the Kd is the concentration at which binding is half-saturated.

The target in one data set is IMP3 KH1-d2 (Homo sapiens, UniProt O00425 192-355, K294D;E295D). Briefly: ITC; EMSA: 10 mM Tris-HCl pH 7.5, 150 mM NaCl, 0.5 mM EDTA, 0.5 mM DTT, 0.1% NP-40, 5% glycerol, tRNA+BSA, 5 nM RNA, 30 min RT then ice; ITC/NMR: 20 mM Bis-Tris, 150 mM NaCl, 2 mM TCEP (protein buffer pH 6.5), ITC RT, NMR 25 C. Particulars: protein: recombinant; tags: Trx-His6 removed by TEV, leaves GAMA.
IMP3 KH1-d2, sequence (O00425 192-355 K294D/E295D): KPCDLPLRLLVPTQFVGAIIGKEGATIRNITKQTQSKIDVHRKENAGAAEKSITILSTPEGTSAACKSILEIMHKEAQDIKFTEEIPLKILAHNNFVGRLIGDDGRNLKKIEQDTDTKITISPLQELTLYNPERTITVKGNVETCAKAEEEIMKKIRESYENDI

The target in another data set is IMP3 RRM1-2 (Homo sapiens, UniProt O00425 2-156). The data set is described as above. To be noted: protein: recombinant; tags: Trx-His6 removed by TEV; primer note: GA-MA-K3 N-terminus.
IMP3 RRM1-2, sequence (O00425 2-156): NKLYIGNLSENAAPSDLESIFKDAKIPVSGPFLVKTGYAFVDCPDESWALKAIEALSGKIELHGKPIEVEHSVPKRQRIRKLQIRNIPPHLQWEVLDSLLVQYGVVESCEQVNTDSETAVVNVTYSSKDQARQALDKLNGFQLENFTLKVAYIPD
The target in data set [1] is T1, IMP3 full-length (Homo sapiens, UniProt O00425 1-579). As to the kind of experiment: EMSA; EMSA: 10 mM Tris-HCl pH 7.5, 150 mM NaCl, 0.5 mM EDTA, 0.5 mM DTT, 0.1% NP-40, 5% glycerol, tRNA+BSA, 5 nM RNA, 30 min RT then ice; ITC/NMR: 20 mM Bis-Tris, 150 mM NaCl, 2 mM TCEP (protein buffer pH 6.5), ITC RT, NMR 25 C. To be noted: protein: recombinant; tags: N-terminal GST (pGEX-6P2); C-terminal His6 removed by TEV; label: 32P-UTP. (A gel shift assay detects complexes by their altered migration in electrophoresis.)
T1 sequence (O00425 whole entry): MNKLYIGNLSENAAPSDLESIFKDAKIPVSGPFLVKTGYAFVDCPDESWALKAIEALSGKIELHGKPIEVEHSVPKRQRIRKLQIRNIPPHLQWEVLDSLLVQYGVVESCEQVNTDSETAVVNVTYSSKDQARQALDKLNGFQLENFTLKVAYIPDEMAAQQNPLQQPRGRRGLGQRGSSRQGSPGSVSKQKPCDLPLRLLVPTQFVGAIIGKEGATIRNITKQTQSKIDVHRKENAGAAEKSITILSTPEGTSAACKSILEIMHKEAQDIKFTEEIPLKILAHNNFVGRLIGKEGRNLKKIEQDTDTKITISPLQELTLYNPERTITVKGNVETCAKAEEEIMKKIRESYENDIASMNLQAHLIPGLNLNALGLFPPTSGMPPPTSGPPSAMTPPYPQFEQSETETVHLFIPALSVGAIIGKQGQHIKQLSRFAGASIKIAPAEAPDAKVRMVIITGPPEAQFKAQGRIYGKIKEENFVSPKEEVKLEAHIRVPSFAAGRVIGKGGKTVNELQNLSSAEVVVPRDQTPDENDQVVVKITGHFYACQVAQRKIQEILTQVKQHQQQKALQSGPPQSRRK

The next data set deals with IMP3 KHd1-2 (Homo sapiens, UniProt O00425 192-355, K213D;E214D). As to the kind of experiment: ITC; EMSA: 10 mM Tris-HCl pH 7.5, 150 mM NaCl, 0.5 mM EDTA, 0.5 mM DTT, 0.1% NP-40, 5% glycerol, tRNA+BSA, 5 nM RNA, 30 min RT then ice; ITC/NMR: 20 mM Bis-Tris, 150 mM NaCl, 2 mM TCEP (protein buffer pH 6.5), ITC RT, NMR 25 C. Particulars: protein: recombinant; tags: Trx-His6 removed by TEV, leaves GAMA. On the technique in general: ITC needs no label: the signal is the heat of the interaction.
IMP3 KHd1-2, sequence (O00425 192-355 K213D/E214D): as the sequence (O00425 192-355 K294D/E295D) above, with K22D, E23D, D103K, D104E counted along it

A further data set has as its target IMP3 KH1-2 WT (Homo sapiens, UniProt O00425 192-355). The description is as above. To be noted: protein: recombinant; tags: Trx-His6 removed by TEV, leaves GAMA.
A further data set deals with IMP3 dKH1-2 (Homo sapiens, UniProt O00425 1-579, K213D;E214D;K294D;E295D). As to the kind of experiment: EMSA; Hill n 1.9; EMSA: 10 mM Tris-HCl pH 7.5, 150 mM NaCl, 0.5 mM EDTA, 0.5 mM DTT, 0.1% NP-40, 5% glycerol, tRNA+BSA, 5 nM RNA, 30 min RT then ice; ITC/NMR: 20 mM Bis-Tris, 150 mM NaCl, 2 mM TCEP (protein buffer pH 6.5), ITC RT, NMR 25 C. Particulars: protein: recombinant; tags: GST; label: 32P-UTP.
IMP3 dKH1-2, sequence (O00425 whole entry K213D/E214D/K294D/E295D): as the sequence (O00425 whole entry) above, with K213D, E214D, K294D, E295D counted along it

The target in another data set is IMP3 dRRM1 (Homo sapiens, UniProt O00425 1-579, Y5A;Y39A;F41A). As to the kind of experiment: EMSA; Hill n 2.8; EMSA: 10 mM Tris-HCl pH 7.5, 150 mM NaCl, 0.5 mM EDTA, 0.5 mM DTT, 0.1% NP-40, 5% glycerol, tRNA+BSA, 5 nM RNA, 30 min RT then ice; ITC/NMR: 20 mM Bis-Tris, 150 mM NaCl, 2 mM TCEP (protein buffer pH 6.5), ITC RT, NMR 25 C. Particulars: protein: recombinant; tags: GST; label: 32P-UTP.
IMP3 dRRM1, sequence (O00425 whole entry Y5A/Y39A/F41A): as the sequence (O00425 whole entry) above, with Y5A, Y39A, F41A counted along it

The target of data set [2] is T1, IMP3 full-length. As to the kind of experiment: EMSA; tRNA and BSA competitors; EMSA: 10 mM Tris-HCl pH 7.5, 150 mM NaCl, 0.5 mM EDTA, 0.5 mM DTT, 0.1% NP-40, 5% glycerol, tRNA+BSA, 5 nM RNA, 30 min RT then ice; ITC/NMR: 20 mM Bis-Tris, 150 mM NaCl, 2 mM TCEP (protein buffer pH 6.5), ITC RT, NMR 25 C. To be noted: protein: recombinant; tags: N-terminal GST (pGEX-6P2); C-terminal His6 removed by TEV; label: 32P-UTP.

Residue numbers refer to the chain shown, from its start.

IMP3 KH1-2 WT, sequence (O00425 192-355): as the sequence (O00425 192-355 K294D/E295D) above, with D103K, D104E counted along it

Regarding AACACAA (ssRNA) [CA 7-mer], the binding result with IMP3 KH1-d2 is on record as “no binding”.

Turning to CACACA (ssRNA) [(CA)3], in the data set with IMP3 RRM1-2, the Kd was found to be 8000 ± 3000 nM.

B1: 101-mer (CA)4<-> (ssRNA)
RNA: GGGAGGGACACACACAGGAAGGCAAUUUUGGAGGAACUACAGAACACAUAUCGCAGCUAAAACACAAUUUUGGAGGAACUACAGAAUGCGGCUAUCAAGGG
With B1, the dissociation constant Kd with IMP3 full-length [1] amounted to 5.6 ± 0.8 nM. With CACACACACA (ssRNA) [(CA)5], the Kd with IMP3 RRM1-2 came out at 9000 ± 2000 nM.

With GUGUGUGUGU (ssRNA) [(GU)5], the Kd in the data set with IMP3 RRM1-2 was found to be 49000 ± 3000 nM.

B2: ANKRD17 exon 29 (ssRNA)
RNA: GGGUCUGUCCGAAGGCAGCUUUUUGUCACAGUUGUGAAGACAUCCAAUCGCCACACAACAACAGUCACAACCACGGCAAGCAACAACAACACUGCACCCACAAAUGCCACAUAUCCUAUGC
On to B2, for which the Kd in the data set with IMP3 full-length [1] was 1.6 ± 0.4 nM. Turning to UCGGCAC (ssRNA) [GGC (CGG) 7-mer], the Kd in the data set with IMP3 KH1-d2 stood at 39000 ± 8000 nM; with IMP3 KH1-2 WT it was 45000 ± 8000 nM. The binding result with IMP3 KHd1-2 was “no binding”.

B3: 101-mer (ssRNA)
RNA: GGGAGGGAGGAAGGCAAUUUUGGAGGAACUACAGAACACAUAUCGCAGCUAAAACACAAUUUUGGAGGAACUACAGAAUGCGGCUAUCCACACACAAAGGG
Consider B3, for which the Kd with IMP3 dKH1-2 came to 50.7 ± 1.6 nM; in the data set with IMP3 dRRM1, 29.2 ± 1 nM; with IMP3 full-length [2], 3.5 ± 0.7 nM.

B4: 101-mer GGC<->CA (ssRNA)
RNA: B3 RNA with A56G, C57G, A58C, A59U, U60A, G82A, G83C, C84A
On to B4, for which the Kd with IMP3 full-length [1] is 15.4 ± 0.6 nM.

B5: 101-mer GGC->UG (ssRNA)
RNA: B3 RNA with G13U, C15U, A16G, C81U, G83U, C84G
B5: the Kd in the data set with IMP3 full-length [1] was 23.8 ± 0.7 nM.

B6: 101-mer CA->UG (ssRNA)
RNA: GGGAGGGAGGAAGGCAAUUUUGGAGGAACUACAGAAUGUGUAUCGCAGCUAAAAUGUGAUUUUGGAGGAACUACAGAAUGCGGCUAUCUGUGUGUGAAGGG
For B6, the Kd with IMP3 full-length [1] stood at 70.5 ± 3.2 nM.

B7: 101-mer GGC<->CA_UG (ssRNA)
RNA: B6 RNA with U55C, U57G, G58C, A59U, U60A, C81U, G83U, C84G
Turning to B7, the Kd in the data set with IMP3 full-length [1] was found to be 34.9 ± 0.7 nM.

B8: 101-mer allUG (ssRNA)
RNA: B6 RNA with G13U, C15U, A16G, C81U, G83U, C84G
For the molecule B8, the Kd with IMP3 full-length [1] was determined as 61.1 ± 3.6 nM.
